Measurements from patent publication US20090047272.
Residue numbers refer to the chain shown, from its start. In names and notes the source's numbering stands.

B1: wild-type human DNase I (protein)
chain: LKIAAFNIQTFGETKMSNATLVSYIVQILSRYDIALVQEVRDSHLTAVGKLLDNLNQDAPDTYHYVVSEPLGRNSYKERYLFVYRPDQVSAVDSYYYDDGCEPCGNDTFNREPAIVRFFSRFTEVREFAIVPLHAAPGDAVAEIDALYDVYLDVQEKWGLEDVMLMGDFNAGCSYVRPSQWSSIRLWTSPTFQWLIPDSADTTATPTHCAYDRIVVAGMLLRGAVVPDSALPFNFQAAYGLSDQLAQAISDHYPVEVMLK
B2: actin-resistant version of DNase I, arDNase (+1), substitution A114R (protein)
chain: B1 chain with A114R

Target: G-actin in human serum

Protein | Average T50 (min) 50% DNA hydrolysis in human serum [min] | Time T50 (min) 50% DNA hydrolysis in human serum
B1 | 28 | 26; 28; 30
B2 | 3 | 2; 3; 4
